Assay [1] concerns the target T1, amyloid-β 1-42 fibers (fAβ42) (human, UniProt P05067 672-713).
T1 construct: domain: amyloid-β 1-42; also called Aβ fibrils; Aβ fibers
The assay can be described thus: SPR, Aβ42 fibers immobilized on a CM3 surface, about 2 µM analyte at 5 µl/min. On the technique in general: In SPR one partner is held on a chip, and binding of the other changes the refractive index at the surface.

For assay [2], the target named is T1, amyloid-β 1-42 fibers (fAβ42). As to the kind of experiment: SPR, 4 µM rs-g3p(N1N2) on Aβ fibrils.
Assay [3] has the same target. As to the kind of experiment: SPR on Aβ fibrils, analyte preheated at 37° C.
Assay [4] shares this target. The assay can be described thus: cell-based or functional assay.
Assay [5] has the same target. As to the kind of experiment: SPR on Aβ fibrils, 25° C.
Assay [6] shares this target. As to the kind of experiment: competition with M13-Alexa488 for fAβ, fiber sedimentation assay.
Assay [7] has the same target. The assay can be described thus: competition with labeled M13 for binding to Aβ, 45 minutes at 37 °C; phage with or without pre-activation at 50 °C for 1.5 hours.
For assay [8] the target is unchanged. As to the kind of experiment: SPR, calculated from the data of FIG. 3A.
Assay [9] has the same target. As to the kind of experiment: SPR on Aβ fibrils.
Assay [10] has the same target.
For assay [11] the target is unchanged. As to the kind of experiment: SPR, 10^14 phage/mL over immobilized fAβ.
Another assay concerns the target tau fibers (ftau). The assay can be described thus: SPR, Construct 4 on ftau.

Where a chain is given by its changes, count along the chain named. Read-outs that look alike come from different tables or passages of the source.

T1 sequence (P05067 672-713 limits assumed): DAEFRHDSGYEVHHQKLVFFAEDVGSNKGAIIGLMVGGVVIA

B1: recombinant soluble N1N2 fragment of g3p, rs-g3p(N1N2) (Construct 3) (other)
chain: MAETVESCLAKSHTENSFTNVWKDDKTLDRYANYEGCLWNATGVVVCTGDETQCYGTWVPIGLAIPENEGGGSEGGGSEGGGSEGGGTKPPEYGDTPIPGYTYINPLDGTYPPGTEQNPANPNPSLEESQPLNTFMFQNNRFRNRQGALTVYTGTVTQGTDPVKTYYQYTPVSSKAMYDAYWNGKFRDCAFHSGFNEDLFVCEYQGQSSDLPQPPVNAPSGHHHHHH
notes: also called monomer; monomeric g3p
By Kd is commonly meant the concentration at which binding is half-saturated. One may read the koff as the first-order rate constant of dissociation. A higher koff goes with a short-lived complex. One may read the kon as the rate constant with which the complex forms. A lower kon goes with slow association. B1: the Kd in assay [1] is around 0.15 µM; in assay [2], around 0.16 µM; in assay [3], 0.05 µM; in assay [5] it was 0.15 µM. Moreover, the koff in assay [3] was 0.0002 s⁻¹; in assay [5], 0.00024 s⁻¹. The results for the on-rate (kon) in [3] and in assay [5] were 4100 M⁻¹ s⁻¹ and 1500 M⁻¹ s⁻¹, respectively. Also, the “IC50 of inhibition of Aβ42 fiber formation, ThT fluorescence (10 µM Aβ42 monomers, 37° C., 3 days)” value in [4] is around 0.02 µM.

B2: If1N1N2 g3p (without Fc domain) (other)
chain: ATTDAECLSKPAFDGTLSNVWKEGDSRYANFENCIYELSGIGIGYDNDTSWNGHWTPVRAADGSGNGGDDNSSGGGSNGDSGNNSTPDTVTPGQTVNLPSDLSTLSIPANVVKSDSIGSQFSLYTNASCTMCSGYYLSNNADSIAIANITETVKADYNQPDMWFEQTDSDGNHVKILQNSYKAVSYNVESKQSDVNNPTYINYSYSVNVKQVSYDTSNVCIMNWETFQNKCDASRAVLITDTVTPSYSRNITIQSNINYQGSNGSGGSGGSGGSG
Take B2: in assay [6], the “fold better binding than M13 N1N2 g3p” value was around 4 fold.

B3: phage fd (wild type) (other)
chain: AETVESCLAKPHTENSFTNVWKDDKTLDRYANYEGCLWNATGVVVCTGDETQCYGTWVPIGLAIPENEGGGSEGGGSEGGGSEGGGTKPPEYGDTPIPGYTYINPLDGTYPPGTEQNPANPNPSLEESQPLNTFMFQNNRFRNRQGALTVYTGTVTQGTDPVKTYYQYTPVSSKAMYDAYWNGKFRDCAFHSGFNEDPFVCEYQGQSSDLPQPPVNAGGGSGGGSGGGSEGGGSEGGGSEGGGSEGGGSGGGSGSGDFDYEKMANANKGAMTENADENALQSDAKGKLDSVATDYGAAIDGFIGDVSGLANGNGATGDFAGSNSQMAQVGDGDNSPLMNNFRQYLPSLPQSVECRPYVFGAGKPYEFSIDCDKINLFRGVFAFLLYVATFMYVFSTFANILRNKES
B3: in assay [7], the binding result was “binds”.

B4: M13 phage (construct not stated) (other)
chain: B3 chain with Y357F, G360S
notes: also called wild type M13; labeled M13
Turning to B4, the Kd in [8] was 0.00359 µM.

B5: M13 phage (Construct 1) (other)
chain: B3 chain with Y357F
Turning to B5, the dissociation constant Kd in assay [9] is 0.00359 µM; in [10] it was around 0.007 µM; in assay [11], around 0.004 µM. In assay [9], this molecule yielded an off-rate (koff) of 9.2e-06 s⁻¹. In assay [9], this molecule returned a kon of 2600 M⁻¹ s⁻¹.

B6: rs-g3p(N1N2)-hIgG4-Fc fusion protein (Construct 4) (Fc fusion)
chain: MAETVESCLAKPHTENSFTNVWKDDKTLDRYANYEGCLWNATGVVVCTGDETQCYGTWVPIGLAIPENEGGGSEGGGSEGGGSEGGGTKPPEYGDTPIPGYTYINPLDGTYPPGTEQNPANPNPSLEESQPLNTFMFQNNRFRNRQGALTVYTGTVTQGTDPVKTYYQYTPVSSKAMYDAYWNGKFRDCAFHSGFNEDPFVCEYQGQSSDLPQPPVNAGGGSGGGSGGGSEGGGSEGGGSEGGGSEGGGSGGGSGSGAMVRSPPCPSCPAPEFLGGPSVFLFPPKPKDTLMISRTPEVTCVVVDVSQEDPEVQFNWYVDGVEVHNAKTKPREEQFNSTYRVVSVLTVLHQDWLNGKEYKCKVSNKGLPSSIEKTISKAKGQPREPQVYTLPPSQEEMTKNQVSLTCLVKGFYPSDIAVEWESNGQPENNYKTTPPVLDSDGSFFLYSRLTVDKSRWQEGNVFSCSVMHEALHNHYTQKSLSLSPGK
notes: also called rs-g3p(N1N2)-Ig fusion; bivalent rs-g3p(N1N2)-Ig fusion
Consider B6, for which, in assay [5], binding was put at a Kd of 0.00732 µM, the koff came to 0.000128 s⁻¹ and the association rate constant (kon) was 17500 M⁻¹ s⁻¹. This molecule returned a Kd with tau fibers (ftau) of 0.0629 µM.

B7: rs-g3p(N1N2)-hIgG4-Fc fusion protein (Construct 5) (Fc fusion)
chain: B6 chain with V156F
In [5], B7 had a Kd of 0.0109 µM, a koff of 0.000166 s⁻¹ and an association rate constant (kon) of 15200 M⁻¹ s⁻¹.

The values are drawn from patent publication US20170305975A1 (PROCLARA BIOSCIENCES, published 2017).
